B1: Notch homolog 2 N-terminal-like protein A (Homo sapiens), Q7Z3S9 (parent)
chain: MCVTYHNGTGYCKCPEGFLGEYCQHRDPCEKNRCQNGGTCVAQAMLGKATCRCASGFTGEDCQYSTSHPCFVSRPCLNGGTCHMLSRDTYECTCQVGFTGKECQWTDACLSHPCANGSTCTTVANQFSCKCLTGFTGQKCETDVNECDIPGHCQHGGTCLNLPGSYQCQCLQGFTGQYCDSLYVPCAPSPCVNGGTCRQTGDFTFECNCLPETVRRGTELWERDREVWNGKEHDEN
B2: Syntenin-1 (Homo sapiens), O00560 (parent)
chain: MSLYPSLEDLKVDKVIQAQTAFSANPANPAILSEASAPIPHDGNLYPRLYPELSQYMGLSLNEEEIRANVAVVSGAPLQGQLVARPSSINYMVAPVTGNDVGIRRAEIKQGIREVILCKDQDGKIGLRLKSIDNGIFVQLVQANSPASLVGLRFGDQVLQINGENCAGWSSDKAHKVLKQAFGEKITMTIRDRPFERTITMHKDSTGHVGFIFKNGKITSIVKDSSAARNGLLTEHNICEINGQNVIGLKDSQIADILSTSGTVVTITIMPAFIFEHIIKRMAPSIMKSLMDHTIPEV
partner: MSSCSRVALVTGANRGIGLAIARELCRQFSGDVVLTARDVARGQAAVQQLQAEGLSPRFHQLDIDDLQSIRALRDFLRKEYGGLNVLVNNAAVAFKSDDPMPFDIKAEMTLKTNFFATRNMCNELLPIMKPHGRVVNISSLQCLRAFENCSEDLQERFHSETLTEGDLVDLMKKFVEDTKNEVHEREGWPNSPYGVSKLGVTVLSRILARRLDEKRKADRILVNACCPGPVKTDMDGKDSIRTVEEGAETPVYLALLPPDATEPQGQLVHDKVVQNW
B3: "Bile acid-CoA:amino acid N-acyltransferase" (Homo sapiens), Q14032 (parent)
chain: MIQLTATPVSALVDEPVHIRATGLIPFQMVSFQASLEDENGDMFYSQAHYRANEFGEVDLNHASSLGGDYMGVHPMGLFWSLKPEKLLTRLLKRDVMNRPFQVQVKLYDLELIVNNKVASAPKASLTLERWYVAPGVTRIKVREGRLRGALFLPPGEGLFPGVIDLFGGLGGLLEFRASLLASRGFASLALAYHNYEDLPRKPEVTDLEYFEEAANFLLRHPKVFGSGVGVVSVCQGVQIGLSMAIYLKQVTATVLINGTNFPFGIPQVYHGQIHQPLPHSAQLISTNALGLLELYRTFETTQVGASQYLFPIEEAQGQFLFIVGEGDKTINSKAHAEQAIGQLKRHGKNNWTLLSYPGAGHLIEPPYSPLCCASTTHDLRLHWGGEVIPHAAAQEHAWKEIQRFLRKHLIPDVTSQL
B4: Potassium channel subfamily K member 1 (Homo sapiens), O00180 (parent)
chain: MLQSLAGSSCVRLVERHRSAWCFGFLVLGYLLYLVFGAVVFSSVELPYEDLLRQELRKLKRRFLEEHECLSEQQLEQFLGRVLEASNYGVSVLSNASGNWNWDFTSALFFASTVLSTTGYGHTVPLSDGGKAFCIIYSVIGIPFTLLFLTAVVQRITVHVTRRPVLYFHIRWGFSKQVVAIVHAVLLGFVTVSCFFFIPAAVFSVLEDDWNFLESFYFCFISLSTIGLGDYVPGEGYNQKFRELYKIGITCYLLLGLIAMLVVLETFCELHELKKFRKMFYVKKDKDEDQVHIIEHDQLSFSSITDQAAGMKEDQKQNEPFVATQSSACVDGPANH
partner: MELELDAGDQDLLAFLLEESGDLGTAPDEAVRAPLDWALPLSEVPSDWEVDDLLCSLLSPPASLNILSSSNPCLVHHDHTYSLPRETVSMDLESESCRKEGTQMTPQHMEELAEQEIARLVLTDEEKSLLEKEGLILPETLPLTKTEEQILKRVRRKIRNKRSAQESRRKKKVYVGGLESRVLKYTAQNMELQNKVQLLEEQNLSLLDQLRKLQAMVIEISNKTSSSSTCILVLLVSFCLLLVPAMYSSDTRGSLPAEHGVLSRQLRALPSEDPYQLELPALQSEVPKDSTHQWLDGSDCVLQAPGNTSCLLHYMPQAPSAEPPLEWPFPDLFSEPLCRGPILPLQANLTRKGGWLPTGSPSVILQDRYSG
B5: Caspase recruitment domain-containing protein 9 (Homo sapiens), Q9H257 (parent)
chain: MSDYENDDECWSVLEGFRVTLTSVIDPSRITPYLRQCKVLNPDDEEQVLSDPNLVIRKRKVGVLLDILQRTGHKGYVAFLESLELYYPQLYKKVTGKEPARVFSMIIDASGESGLTQLLMTEVMKLQKKVQDLTALLSSKDDFIKELRVKDSLLRKHQERVQRLKEECEAGSRELKRCKEENYDLAMRLAHQSEEKGAALMRNRDLQLEIDQLKHSLMKAEDDCKVERKHTLKLRHAMEQRPSQELLWELQQEKALLQARVQELEASVQEGKLDRSSPYIQVLEEDWRQALRDHQEQANTIFSLRKDLRQGEARRLRCMEEKEMFELQCLALRKDSKMYKDRIEAILLQMEEVAIERDQAIATREELHAQHARGLQEKDALRKQVRELGEKADELQLQVFQCEAQLLAVEGRLRRQQLETLVLSSDLEDGSPRRSQELSLPQDLEDTQLSDKGCLAGGGSPKQPFAALHQEQVLRNPHDAGLSSGEPPEKERRRLKESFENYRRKRALRKMQKGWRQGEEDRENTTGSDNTDTEGS

Variants of: B1
Settings: with pde9a_human PDE9A

R74Q was tested. Which “effect of a mutation on the interaction” value did it give?
Its value is “with no effect”.

Variants of: B1
Settings: with ppbi_human ALPI

For R74Q, which “effect of a mutation on the interaction” value is on record?
The value was “with no effect”.

Variants of: B1
Settings: with snai1_human SNAI1, O95863

Which “effect of a mutation on the interaction” value does the source give for R74Q here?
The value was “with no effect”.

Variants of: B1
Settings: with anfb_human NPPB

R74Q was tested. Which “effect of a mutation on the interaction” value did it give?
Its value is “with no effect”.

Variants of: B1
Settings: with adck5_human ADCK5, Q3MIX3
Sequence of adck5_human ADCK5, Q3MIX3 (Q3MIX3 whole entry): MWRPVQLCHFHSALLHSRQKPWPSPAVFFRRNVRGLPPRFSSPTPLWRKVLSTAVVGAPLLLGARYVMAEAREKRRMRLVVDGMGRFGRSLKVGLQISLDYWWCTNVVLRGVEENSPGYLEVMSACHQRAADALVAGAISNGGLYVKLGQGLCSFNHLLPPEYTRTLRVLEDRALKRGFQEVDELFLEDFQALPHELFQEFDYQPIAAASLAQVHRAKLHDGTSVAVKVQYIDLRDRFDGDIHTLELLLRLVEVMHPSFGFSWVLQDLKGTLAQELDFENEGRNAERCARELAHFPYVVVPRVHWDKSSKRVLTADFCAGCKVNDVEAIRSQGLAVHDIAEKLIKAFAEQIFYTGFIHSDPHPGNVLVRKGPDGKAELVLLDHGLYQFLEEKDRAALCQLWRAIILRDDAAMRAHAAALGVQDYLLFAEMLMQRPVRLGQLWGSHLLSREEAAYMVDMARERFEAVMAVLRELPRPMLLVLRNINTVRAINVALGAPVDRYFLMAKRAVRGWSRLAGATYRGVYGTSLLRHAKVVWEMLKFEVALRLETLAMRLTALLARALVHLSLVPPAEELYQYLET

How did the “effect of a mutation on the interaction” value turn out when R74Q was run?
The value was “with no effect”.

Variants of: B1
Settings: with catz_human CTSZ

With R74Q as the variant, how does the “effect of a mutation on the interaction” value read?
Its value is “with no effect”.

Variants of: B1
Settings: with txnd5_human TXNDC5, Q8NBS9
Sequence of txnd5_human TXNDC5, Q8NBS9 (Q8NBS9 whole entry): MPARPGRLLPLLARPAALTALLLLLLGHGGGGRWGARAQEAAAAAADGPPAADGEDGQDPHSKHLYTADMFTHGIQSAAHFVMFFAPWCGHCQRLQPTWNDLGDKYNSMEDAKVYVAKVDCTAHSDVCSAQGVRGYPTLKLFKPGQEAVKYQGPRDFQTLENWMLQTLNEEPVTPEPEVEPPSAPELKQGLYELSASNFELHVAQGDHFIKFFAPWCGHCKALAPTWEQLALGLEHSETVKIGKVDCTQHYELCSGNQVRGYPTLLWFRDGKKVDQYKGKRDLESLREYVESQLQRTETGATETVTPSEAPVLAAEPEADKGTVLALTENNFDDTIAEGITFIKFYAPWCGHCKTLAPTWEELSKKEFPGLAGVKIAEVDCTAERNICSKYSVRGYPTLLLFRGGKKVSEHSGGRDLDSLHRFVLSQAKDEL

Which “effect of a mutation on the interaction” value does the source give for R74Q here?
Its value is “with no effect”.

Variants of: B1
Settings: with trpv6_human TRPV6, Q9H1D0

Which “effect of a mutation on the interaction” value does the source give for R74Q here?
Its value is “with no effect”.

Variants of: B1
Settings: with ptn23_human PTPN23, Q9H3S7
Sequence of ptn23_human PTPN23, Q9H3S7 (Q9H3S7 whole entry): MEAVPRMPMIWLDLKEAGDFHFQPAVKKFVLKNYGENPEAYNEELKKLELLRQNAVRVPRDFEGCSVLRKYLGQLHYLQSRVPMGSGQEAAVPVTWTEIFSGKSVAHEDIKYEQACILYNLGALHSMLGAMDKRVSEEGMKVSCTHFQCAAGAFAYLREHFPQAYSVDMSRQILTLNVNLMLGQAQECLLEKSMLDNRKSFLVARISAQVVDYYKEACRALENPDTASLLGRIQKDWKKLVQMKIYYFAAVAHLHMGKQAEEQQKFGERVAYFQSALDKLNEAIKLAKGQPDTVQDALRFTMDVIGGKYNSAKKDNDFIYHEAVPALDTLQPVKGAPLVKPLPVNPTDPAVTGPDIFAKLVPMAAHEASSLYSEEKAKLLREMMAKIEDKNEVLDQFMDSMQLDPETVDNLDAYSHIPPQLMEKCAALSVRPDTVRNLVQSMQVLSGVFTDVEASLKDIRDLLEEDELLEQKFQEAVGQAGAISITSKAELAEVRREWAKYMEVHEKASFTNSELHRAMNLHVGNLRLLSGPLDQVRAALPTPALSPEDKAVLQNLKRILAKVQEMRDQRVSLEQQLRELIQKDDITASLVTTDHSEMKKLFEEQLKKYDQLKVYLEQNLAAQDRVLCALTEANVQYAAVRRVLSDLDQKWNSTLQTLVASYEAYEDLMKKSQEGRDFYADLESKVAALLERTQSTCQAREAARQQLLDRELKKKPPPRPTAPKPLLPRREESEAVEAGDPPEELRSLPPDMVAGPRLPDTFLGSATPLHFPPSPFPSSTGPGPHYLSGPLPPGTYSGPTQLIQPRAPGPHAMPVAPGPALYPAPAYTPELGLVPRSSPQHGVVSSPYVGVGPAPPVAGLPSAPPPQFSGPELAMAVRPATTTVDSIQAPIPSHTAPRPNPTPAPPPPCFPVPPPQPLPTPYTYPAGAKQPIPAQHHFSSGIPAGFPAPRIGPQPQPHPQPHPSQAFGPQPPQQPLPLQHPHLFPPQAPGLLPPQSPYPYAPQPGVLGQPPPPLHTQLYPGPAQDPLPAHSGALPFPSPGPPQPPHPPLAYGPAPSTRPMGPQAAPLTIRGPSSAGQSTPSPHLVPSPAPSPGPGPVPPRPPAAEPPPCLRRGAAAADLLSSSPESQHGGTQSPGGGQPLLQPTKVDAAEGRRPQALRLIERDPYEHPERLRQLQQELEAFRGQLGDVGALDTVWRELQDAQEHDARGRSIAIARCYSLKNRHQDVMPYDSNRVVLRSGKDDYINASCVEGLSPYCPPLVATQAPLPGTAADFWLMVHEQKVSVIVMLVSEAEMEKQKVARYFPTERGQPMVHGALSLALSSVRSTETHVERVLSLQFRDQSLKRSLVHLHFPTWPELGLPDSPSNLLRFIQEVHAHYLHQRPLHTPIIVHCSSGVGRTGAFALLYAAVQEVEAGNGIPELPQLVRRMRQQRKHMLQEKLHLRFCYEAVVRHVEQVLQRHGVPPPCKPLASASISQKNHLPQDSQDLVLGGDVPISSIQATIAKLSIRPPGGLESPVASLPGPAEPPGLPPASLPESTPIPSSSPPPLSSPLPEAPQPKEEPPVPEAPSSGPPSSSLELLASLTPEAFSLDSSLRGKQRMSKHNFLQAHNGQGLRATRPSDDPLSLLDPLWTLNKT

Which “effect of a mutation on the interaction” value does the source give for R74Q here?
The value was “with no effect”.

Variants of: B1
Settings: with gata2_human GATA2, P23769
Sequence of gata2_human GATA2, P23769 (P23769 whole entry): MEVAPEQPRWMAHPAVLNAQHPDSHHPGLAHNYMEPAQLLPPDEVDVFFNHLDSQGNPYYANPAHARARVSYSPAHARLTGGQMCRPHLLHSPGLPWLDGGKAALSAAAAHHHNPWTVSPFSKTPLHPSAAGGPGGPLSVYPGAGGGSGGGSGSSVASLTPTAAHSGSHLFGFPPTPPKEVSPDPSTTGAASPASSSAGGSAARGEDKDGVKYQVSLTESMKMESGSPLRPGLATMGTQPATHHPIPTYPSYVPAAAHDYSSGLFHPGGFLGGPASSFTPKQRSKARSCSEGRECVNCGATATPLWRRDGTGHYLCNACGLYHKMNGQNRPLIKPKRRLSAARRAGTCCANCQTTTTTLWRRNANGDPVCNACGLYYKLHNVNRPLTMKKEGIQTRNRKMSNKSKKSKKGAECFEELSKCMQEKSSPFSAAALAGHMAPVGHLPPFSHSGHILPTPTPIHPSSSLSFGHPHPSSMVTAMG

How did the “effect of a mutation on the interaction” value turn out when R74Q was run?
Its value is “with no effect”.

Variants of: B1
Settings: with hbaz_human HBZ

How did the “effect of a mutation on the interaction” value turn out when R74Q was run?
Its value is “with no effect”.

Variants of: B1
Settings: with nect3_human NECTIN3, Q9NQS3

How did the “effect of a mutation on the interaction” value turn out when R74Q was run?
Its value is “with no effect”.

Variants of: B1
Settings: with cd5r1_human CDK5R1, Q15078

How did the “effect of a mutation on the interaction” value turn out when R74Q was run?
Its value is “with no effect”.

Variants of: B1
Settings: with uxt_human UXT

R74Q was tested. Which “effect of a mutation on the interaction” value did it give?
The value was “with no effect”.

Variants of: B1
Settings: with yipf3_human YIPF3, Q9GZM5
Sequence of yipf3_human YIPF3, Q9GZM5 (Q9GZM5 whole entry): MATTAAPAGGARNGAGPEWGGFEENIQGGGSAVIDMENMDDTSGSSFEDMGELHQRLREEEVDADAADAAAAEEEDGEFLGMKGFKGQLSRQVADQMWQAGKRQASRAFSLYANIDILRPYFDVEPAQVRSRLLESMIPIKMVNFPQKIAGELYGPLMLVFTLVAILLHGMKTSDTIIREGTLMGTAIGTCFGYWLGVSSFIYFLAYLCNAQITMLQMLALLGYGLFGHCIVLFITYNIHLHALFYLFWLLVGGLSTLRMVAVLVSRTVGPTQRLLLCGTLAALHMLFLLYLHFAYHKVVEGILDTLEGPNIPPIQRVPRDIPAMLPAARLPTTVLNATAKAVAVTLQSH

With R74Q as the variant, how does the “effect of a mutation on the interaction” value read?
The value was “with no effect”.

Variants of: B1
Settings: with thms2_human THEMIS2, Q5TEJ8

R74Q was tested. Which “effect of a mutation on the interaction” value did it give?
Its value is “with no effect”.

Variants of: B1
Settings: with bmp7_human BMP7, P18075

How did the “effect of a mutation on the interaction” value turn out when R74Q was run?
The value was “with no effect”.

Variants of: B1
Settings: with cxcl5_human CXCL5, P42830
Sequence of cxcl5_human CXCL5, P42830 (P42830 whole entry): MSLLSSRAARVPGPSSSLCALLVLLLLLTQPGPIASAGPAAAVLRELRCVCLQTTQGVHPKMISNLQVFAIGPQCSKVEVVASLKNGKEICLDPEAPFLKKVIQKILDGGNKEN

For R74Q, which “effect of a mutation on the interaction” value is on record?
Its value is “with no effect”.

Variants of: B2
Settings: with cbr3_human CBR3, O75828

For K124R, which “effect of a mutation on the interaction” value is on record?
Its value is “with no effect”.

Variants of: B3
Settings: with FBP1, P09467
Sequence of FBP1, P09467 (P09467 whole entry): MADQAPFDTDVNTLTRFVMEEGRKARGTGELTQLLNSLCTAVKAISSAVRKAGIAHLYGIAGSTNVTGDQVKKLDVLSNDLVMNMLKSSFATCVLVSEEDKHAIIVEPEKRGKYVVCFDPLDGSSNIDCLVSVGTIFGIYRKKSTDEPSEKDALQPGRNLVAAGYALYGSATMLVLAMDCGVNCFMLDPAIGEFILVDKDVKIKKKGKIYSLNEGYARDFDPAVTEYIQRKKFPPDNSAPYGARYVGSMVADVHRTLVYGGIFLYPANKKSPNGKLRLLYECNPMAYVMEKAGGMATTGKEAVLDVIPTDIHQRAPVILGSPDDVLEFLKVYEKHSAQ

With R201P as the variant, how does the “effect of a mutation on the interaction” value read?
The value was “with no effect”.

V304A was tested. Which “effect of a mutation on the interaction” value did it give?
Its value is “with no effect”.

Variants of: B3
Settings: with fhl3_human FHL3, Q13643
Sequence of fhl3_human FHL3, Q13643 (Q13643 whole entry): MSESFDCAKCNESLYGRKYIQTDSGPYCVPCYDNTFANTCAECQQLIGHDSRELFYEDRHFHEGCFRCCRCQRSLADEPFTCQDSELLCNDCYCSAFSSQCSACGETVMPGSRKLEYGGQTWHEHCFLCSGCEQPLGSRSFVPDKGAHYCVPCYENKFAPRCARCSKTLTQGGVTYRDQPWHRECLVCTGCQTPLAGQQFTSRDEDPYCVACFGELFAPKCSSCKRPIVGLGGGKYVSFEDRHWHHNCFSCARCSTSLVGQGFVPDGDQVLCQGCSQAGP

For A182S, which “effect of a mutation on the interaction” value is on record?
Its value is “with no effect”.

Variants of: B4
Settings: with creb3_human CREB3, O43889

R171H was tested. Which “effect of a mutation on the interaction” value did it give?
The value was “with no effect”.

Variants of: B5
Settings: with KIAA0408, Q6ZU52
Sequence of KIAA0408, Q6ZU52 (Q6ZU52 whole entry): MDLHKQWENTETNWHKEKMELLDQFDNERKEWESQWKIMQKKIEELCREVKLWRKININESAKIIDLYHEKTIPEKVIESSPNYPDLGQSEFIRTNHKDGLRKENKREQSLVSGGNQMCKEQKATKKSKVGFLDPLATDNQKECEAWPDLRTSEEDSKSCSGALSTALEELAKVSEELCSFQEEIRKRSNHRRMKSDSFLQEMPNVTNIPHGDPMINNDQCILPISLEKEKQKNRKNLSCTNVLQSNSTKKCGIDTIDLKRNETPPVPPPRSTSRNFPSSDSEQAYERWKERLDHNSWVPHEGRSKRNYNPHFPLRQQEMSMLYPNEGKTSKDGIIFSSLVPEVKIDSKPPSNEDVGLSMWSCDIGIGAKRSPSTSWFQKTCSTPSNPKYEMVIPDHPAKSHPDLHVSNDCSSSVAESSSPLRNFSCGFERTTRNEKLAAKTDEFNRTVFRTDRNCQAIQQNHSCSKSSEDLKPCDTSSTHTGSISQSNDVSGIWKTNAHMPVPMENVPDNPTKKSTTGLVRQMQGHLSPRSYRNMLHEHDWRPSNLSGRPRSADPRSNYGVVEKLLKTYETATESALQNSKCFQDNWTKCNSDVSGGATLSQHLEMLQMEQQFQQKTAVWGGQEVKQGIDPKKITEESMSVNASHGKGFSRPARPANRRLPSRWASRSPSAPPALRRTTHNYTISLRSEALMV

With S12N as the variant, how does the “effect of a mutation on the interaction” value read?
Its value is “with no effect”.

— IntAct's records for PubMed 31515488
